Drawing on patent publication US20220144937A1 (JIANGSU HENGRUI MEDICINE, published 2022), this text covers Kd and IC50 for 1 molecule.

Assay [1] addresses T1, cyno IL-5 with his-tag (cyno (paragraph 156 says rhesus), UniProt P48093 20-134 (rhesus entry)).
T1 construct: also called rhesus IL-5 with His-tag; monkey IL-5
T1 sequence: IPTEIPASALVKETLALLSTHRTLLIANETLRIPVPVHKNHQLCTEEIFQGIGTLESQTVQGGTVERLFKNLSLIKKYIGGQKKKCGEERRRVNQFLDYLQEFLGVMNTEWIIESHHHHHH
The assay can be described thus: Biacore T200, antibody captured on protein A chip, antigen in flow, 1:1 Langmuir. How it is done: (§1) The affinity of the murine IL-5 antibody to be tested with human IL-5 was measured by Biacore T200 (GE) instrument.
(§2) The protein A biosensor chip was used to affinity capture of the molecules to be tested, and then the antigen (recombinant human and cyno IL-5 prepared in Example 1) flowed through the surface of the chip, and the reaction signal was detected in real time with the Biacore T200 instrument to obtain the binding and dissociation curves. After the dissociation of each experimental cycle was completed, the biosensor chip was washed and regenerated with glycine-hydrochloric acid regeneration solution (pH 1.5). BIA evaluation version 4.1 GE software was used to fit the data against (1:1) Langmuir model, and the affinity value was obtained and shown in Table 13.
(In SPR one partner is held on a chip, and binding of the other changes the refractive index at the surface.)

Assay [2] deals with T2, human IL-5 with his-tag (rhIL-5-his) (human, UniProt P05113 20-134).
T2 construct: It was expressed in HEK293 and purified from the supernatant; also called HuIL-5; recombinant human IL-5
T2 sequence: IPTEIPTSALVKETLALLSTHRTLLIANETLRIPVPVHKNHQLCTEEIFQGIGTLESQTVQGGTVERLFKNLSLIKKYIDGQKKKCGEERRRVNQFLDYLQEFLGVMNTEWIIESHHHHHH
The description is as above. How it is done: as §1, §2

In assay [3] the target is T2, human IL-5 with his-tag (rhIL-5-his). Kind of assay: competition ELISA: IL-5 coated, biotin-IL-5Rα (10 µg/ml) as competitor, antibody diluted. As for the experimental part: To identify the ability of IL-5 antibody to block IL-5 from binding to the extracellular region of recombinantly expressed IL-5α receptor protein, IL-5 (5 μg/ml in PBS) was coated on an ELISA plate and incubated at 37° C. for 1 hour; the liquid was removed, 200 μl/well of 5% skimmed milk blocking solution diluted with PBS was added, and incubated for 2.5 hours in a 37° C. incubator for blocking. After blocking, the blocking solution was removed and the plate was washed with PBST buffer (pH 7.4 PBS comprising 0.05% Tween-20) for 5 times; 25 μl of 10 μg/ml IL-5Rα (in 1% BSA) labeled by a biotin labeling kit (Tojin Chemical, LK03) was added, and then 25 μl of gradient-diluted antibody was added (the antibody competed with IL-5Rα for the binding with IL-5) and incubated at 37° C. for 1 hour. After the incubation, the reaction solution in the microtiter plate was removed, the plate was washed for 5 times with PBST, added with 50 μl/well of Streptavidin-Peroxidase Polymer (Sigma, 52438-250UG) diluted with sample dilution solution at 1:600 and incubated for 1 hour at 37° C.

Assay [4] has the same target. Kind of assay: Biacore. How it is done:
as §1, §2

B1: mAb1706 (antibody, V domains shown)
VH: EVQLVESGGGLVQPGRSLKLSCAASGFTFSHYYMAWVRQAPKKGLEWVTSINYEGNSAYYGDSVKGRFTISRDNAKSTLYLQMDSLRSEDTATYYCATETLRESLDYWGQGVMVTVSS
VL: DIQMTQSPSSMSVSLGDRVTITCRASQDIGNYLSWYQQKLGKSPKLMIHSASNLEVGVPSRFSGSRSGSDYSLTINTLESEDPGIYFCLQHKQFPRTFGGGTKLELK
notes: Murine hybridoma antibody
For B1, the Kd (usually the equilibrium constant for the complex coming apart) worked out at 0.277 nM in assay [1], 0.0383 nM in assay [2] and 0.0383 nM in assay [4]. Further, the IC50 (in general, the concentration at which inhibition is half-maximal) in assay [3] came to 0.4 µg/mL.
